B1: Centrosomal protein of 135 kDa (Homo sapiens), Q66GS9 (parent)
chain: MTTAVERKYINIRKRLDQLGYRQTLTVECLPLVEKLFSDLVHTTESLRQSKLSAVKAEKESANFDFVLEPYKLENARLSRENNELYLELMKLREHSDQHVKELKTSLKKCARETADLKFLNNQYAHKLKLLEKESKAKNERIQQLQEKNLHAVVQTPGGKKRSIAFRRQRMQIDEPVPPSEVSSYPVPQPDDPYIADLLQVADNRIQELQQEVHQLQEKLAMMESGVRDYSKQIELREREIERLSVALDGGRSPDVLSLESRNKTNEKLIAHLNIQVDFLQQANKDLEKRIRELMETKETVTSEVVNLSNKNEKLCQELTEIDQLAQQLERHKEEVLETADKELGEAKKEIKRKLSEMQDLEETMAKLQLELNLCQKEKERLSDELLVKSDLETVVHQLEQEKQRLSKKVESFAVTERQLTLEVERMRLEHGIKRRDRSPSRLDTFLKGIEEERDYYKKELERLQHIIQRRSCSTSYSAREKSSIFRTPEKGDYNSEIHQITRERDELQRMLERFEKYMEDIQSNVKLLTAERDKLSVLYNEAQEELSALRKESTQTTAPHNIVSLMEKEKELALSDLRRIMAEKEALREKLEHIEEVSLFGKSELEKTIEHLTCVNHQLESEKYELKSKVLIMKETIESLENKLKVQAQKFSHVAGDSSHQKTEVNSLRIVNEQLQRSVDDYQHRLSIKRGELESAQAQIKILEEKIDELNLKMTSQDEEAHVMKKTIGVIDKEKDFLQETVDEKTEKIANLQENLANKEKAVAQMKIMISECESSVNQLKETLVNRDREINSLRRQLDAAHKELDEVGRSREIAFKENRRLQDDLATMARENQEISLELEAAVQEKEEMKSRVHKYITEVSRWESLMAAKEKENQDLLDRFQMLHNRAEDWEVKAHQAEGESSSVRLELLSIDTERRHLRERVELLEKEIQEHINAHHAYESQISSMAKAMSRLEEELRHQEDEKATVLNDLSSLRELCIKLDSGKDIMTQQLNSKNLEFERVVVELENVKSESDLLKKQLSNERHTVKNLESLLATNRDKEFHSHLTSHEKDTEIQLLKEKLTLSESKLTSQSRENTMLRAKVAQLQTDYDALKRQISTERYERERAIQEMRRHGLATPPLSSTLRSPSHSPEHRNV
partner: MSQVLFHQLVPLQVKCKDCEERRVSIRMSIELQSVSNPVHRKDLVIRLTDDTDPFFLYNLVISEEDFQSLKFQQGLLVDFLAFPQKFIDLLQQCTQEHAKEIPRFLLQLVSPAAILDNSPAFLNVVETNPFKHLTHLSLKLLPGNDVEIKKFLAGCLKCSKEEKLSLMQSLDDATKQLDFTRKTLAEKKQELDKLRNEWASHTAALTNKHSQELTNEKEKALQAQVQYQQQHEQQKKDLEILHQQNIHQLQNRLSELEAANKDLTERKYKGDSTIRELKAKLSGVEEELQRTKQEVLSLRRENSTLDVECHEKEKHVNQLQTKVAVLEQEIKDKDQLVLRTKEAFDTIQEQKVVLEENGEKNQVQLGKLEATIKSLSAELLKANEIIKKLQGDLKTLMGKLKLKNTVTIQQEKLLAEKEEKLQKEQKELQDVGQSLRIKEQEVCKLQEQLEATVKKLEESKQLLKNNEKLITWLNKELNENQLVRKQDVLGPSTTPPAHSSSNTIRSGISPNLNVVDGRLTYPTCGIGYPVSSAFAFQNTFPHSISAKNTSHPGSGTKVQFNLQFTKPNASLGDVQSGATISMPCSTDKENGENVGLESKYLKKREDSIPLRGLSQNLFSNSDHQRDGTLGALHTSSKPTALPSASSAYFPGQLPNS

Variants of: B1
Conditions: with sas6_human SASS6, Q6UVJ0

Variant | effect of a mutation on the interaction
L588P | disrupting interaction

Source: IntAct's records for PubMed 23511974
